The values that follow come from US7319094B2, “Increased and sustained in vivo gene expression using a nucleic acid, histone and amphipathic compound composition” (Rhode Island Hospital, priority 2001, dated 2008).

The test system of this data set is PY-PI3 kinase (total PI3 kinase). Nature of the data set: PI3 kinase activity in anti-phospho-tyrosine (PY) immunoprecipitates. It is filed as cell-based, human. As to conditions: 24 or 48 hours of stimulation. The protocol:
The cells were harvested in Triton lysis buffer supplemented with protease and phosphatase inhibitors. Total PI3K was immunoprecipitated from 500 μg protein in cell lysates using rabbit polyclonal antibodies to the p85 subunit of PI3K and Protein A sepharose. The immunoprecipitants were incubated for 5 minutes at room temperature with 10 μg of sonicated phosphatidylinositol in HEPES buffer (200 mM HEPES, 4 mM EGTA, 4 mM sodium phosphate, pH 7.0). Reactions were initiated by the addition of 5 μCi [α^32p] ATP, 15 mM MgCl2, 150 mM ATP, 1.5 mM Tris-HCl, pH 7.4, and 15 mM NaCl. After 10 minutes incubation at 30° C., the reactions were stopped by the addition of HCl to a final concentration of 1.2 N, followed by chloroform/methanol extraction. Phosphorylated lipids were analyzed by thin layer chromatography using gel plates pre-coated with 1% oxalate (Merck, White House Station, N.J.). PI3K activity was measured with a phosphorimager.
PI3 kinase is an important mediator of neuronal survival. The pro-survival effects of PI3K are mediated through activation of Akt (protein kinase B) and phosphorylation of Bad to render it inactivated. Inhibition of PI3 kinase activity is associated with PNET2 cell apoptosis. Therefore, experiments were carried out to determine if growth factor stimulated PI3 kinase activity was inhibited in insulin or IGF-1-stimulated cultures. Such inhibition has been observed following chronic ethanol exposure. Since insulin and IGF-1 can activate PI3 kinase through the insulin-receptor substrate-1 (IRS-1) or through IRS-1-independent pathways, both IRS1-associated PI3 kinase and total PI3 kinase activities were measured. These studies were conducted using insulin or PDGF stimulated cultures in which AD7c-NTP gene expression was induced by 3 mM IPTG stimulation. […] Levels of PI3 kinase activity were measured in anti-phospho-tyrosine (PY) immunoprecipitates. […] Similarly, PI3 kinase activity was readily detected in the PY immunoprecipitates prepared with cells stimulated with insulin or PDGF.

In the case of “insulin: Human insulin purchased from Novagen”, the “PY-PI3 kinase activity, 24 or 48 hours” value is listed as “similar”.
